Laboratory results published in paper PMC5678894 (Biochemistry, 2017).

B1: Full-length R67 dihydrofolate reductase (enzyme)
chain: MIRSSNEVSNPVAGNFVFPSNATFGMGDRVRKKSGAAWQGQIVGWYCTNLTPEGYAVESEAHPGSVQIYPVAALERIN
B2: Chymotrypsin-truncated R67 dihydrofolate reductase (domain or fragment)
chain: VFPSNATFGMGDRVRKKSGAAWQGQIVGWYCTNLTPEGYAVESEAHPGSVQIYPVAALERIN

Molecular target: the molecule itself
Assay: small angle neutron scattering

Protein	binding result
B1	binds
B2	binds
